Target: Rac W56F mutant (UniProt P63000 1-192, W56F)
Assay: cell-based or functional assay

B1: Dock180^DHR-2c (C-terminus of DHR-2 in Dock180, residues 1335-1657) (domain or fragment)
chain: KPDYFAVGYYGQGFPTFLRGKVFIYRGKEYERREDFEARLLTQFPNAEKMKTTSPPGDDIKNSPGQYIQCFTVKPKLDLPPKFHRPVSEQIVSFYRVNEVQRFEYSRPIRKGEKNPDNEFANMWIERTIYTTAYKLPGILRWFEVKSVFMVEISPLENAIETMQLTNDKINSMVQQHLDDPSLPINPLSMLLNGIVDPAVMGGFANYEKAFFTDRYLQEHPEAHEKIEKLKDLIAWQIPFLAEGIRIHGDKVTEALRPFHERMEACFKQLKEKVEKEYGVRIMPSSLDDRRGSRPRSMVRSFTMPSSSRPLSVASVSSLSSDS
With B1 the “Mant-GDP nucleotide exchange (GEF activity of DHR-2c), relative to wild-type Rac” value was < 10 % of the level of wild-type Rac.

Reference: article PMC3048587 (Biochemistry, 2011)
